Consider one protein from article PMC3995681, “Structural, Kinetic and Proteomic Characterization of Acetyl Phosphate-Dependent Bacterial Protein Acetylation” (PLoS ONE, 2014).

This data set deals with the molecule itself. The data set can be described thus: crystal structure; GapA crystals from PACT G2 (0.2 M sodium bromide, 0.1 M Bis Tris propane 7.5, 20% PEG 3350), grown at 22°C, soaked with about 10 mM acP for less than 30 sec; data at 100 K.

B1: glyceraldehyde-3-phosphate dehydrogenase (GapA) from E. coli (enzyme, E. coli K-12, UniProt P0A9B2 1-331, looked up)
chain: MTIKVGINGFGRIGRIVFRAAQKRSDIEIVAINDLLDADYMAYMLKYDSTHGRFDGTVEVKDGHLIVNGKKIRVTAERDPANLKWDEVGVDVVAEATGLFLTDETARKHITAGAKKVVMTGPSKDNTPMFVKGANFDKYAGQDIVSNASCTTNCLAPLAKVINDNFGIIEGLMTTVHATTATQKTVDGPSHKDWRGGRGASQNIIPSSTGAAKAVGKVLPELNGKLTGMAFRVPTPNVSVVDLTVRLEKAATYEQIKAAVKAAAEGEMKGVLGYTEDDVVSTDFNGEVCTSVFDAKAGIALNDNFVKLVSWYDNETGYSNKVLDLIAHISK
modifications: acetyl-lysine at K46, K249, K257 and K116 after the acP soak of the crystals (not in all molecules of the asymmetric unit)
notes: glyceraldehyde-3-phosphate dehydrogenase GapA, E. coli K-12, ORF of the gene from the ASKA clone; The crystals were grown from unmodified protein and acetylated by a soak with acP of under 30 sec; source: E. coli BL-21 (DE3) Magic cells, ASKA clone in pCA24N, purified
A word on the stoichiometry N: it is the number of molecules, sites or subunits per partner or assembly. Take B1: the “stoichiometry N” value was determined as 4.
